Reference: FireProtDB (doi:10.1021/bi00150a028)

B1: Lysozyme C, P61626 (parent)
chain: MKALIVLGLVLLSVTVQGKVFERCELARTLKRLGMDGYRGISLANWMCLAKWESGYNTRATNYNAGDRSTDYGIFQINSRYWCNDGKTPGAVNACHLSCSALLQDNIADAVACAKRVVRDPQGIRAWVAWRNRCQNRDVRQYVQGCGV

Variants of: B1
Conditions: Homo sapiens, pH 3, Thermal, DSC, glycine-HCl 0.05 M, reversible: yes, structure 1LZ1, whole UniProt chain shown; for ddG of mutation (higher = less stable) / unfolding enthalpy (calorimetric) / unfolding free energy: 57 °C

Variant: MKALIVLGLVLLSVTVQGKVFERCELARTLKRLGMDGYRGISLANWMCLAKWESGYNTRATNYNAGDRSTDYGIFQINSRYWCNDGKTPGAVNAAHLSCSALLQDNIADAVAAAKRVVRDPQGIRAWVAWRNRCQNRDVRQYVQGCGV [C95A C113A]
- ddG of mutation (higher = less stable): 4.6 kcal/mol
- unfolding enthalpy (calorimetric): 90.8 kcal/mol
- unfolding free energy: 0 kcal/mol
- Tm: 56.9 °C
- change of melting temperature, mutant - wild type (higher = more stable): -14.5 °C

Variant: MKALIVLGLVLLSVTVQGKVFERCELARTLKRLGMDGYRGISLANWMCLAKWESGYNTRATNYNAGDRSTDYGIFQINSRYWCNDGKTPGAVNAAHLSCSALLQDNIADAVACAKRVVRDPQGIRAWVAWRNRCQNRDVRQYVQGCGV [C95A]
- ddG of mutation (higher = less stable): 4.6 kcal/mol
- unfolding enthalpy (calorimetric): 94.8 kcal/mol
- unfolding free energy: 0 kcal/mol
